In experiment [1] the target is T1, human IL13 R130Q (human, UniProt P35225 35-146, biotinylated (sites not given)).
T1 construct: Peprotech; also called IL13R13Q; R111Q
Description: IL13Ra2 binding inhibition; repeats Table 17. As for the experimental part:
(§1) Binding protein inhibition of IL13 binding to Rα2 was assessed using IL13Rα2-Fc (R&D Systems) conjugated to carboxylated Luminex microspheres according to the manufacturer's protocol. For biotinylation of IL13, recombinant human IL13 R130Q (Peprotech) was biotinylated at a 4:1 ratio using EZ-Link NHS-LC-Biotin (Pierce, #21336) for 2 hours at RT. The protein was dialyzed in PBS overnight to remove excess biotinylation reagent. For neutralization experiments, 5000 IL13 Rα2-Fc conjugated beads in 50 μl were added to each well of a 96-well filter plate (Millipore). 50 μl of biotinylated human IL13 at 1 ng/ml (80 pM) was mixed with an appropriate dilution of binding protein in Luminex Assay Buffer (PBS, 1% BSA, pH 7.4). The plate was incubated for 1 hour at RT in the dark on a plate shaker, set to shake vigorously to avoid bead aggregation. The plate was washed 3 times with 150 μl of wash buffer (PBS, 1% BSA, pH 7.4, 0.05% Tween-20) using a vacuum manifold followed by the addition of 50 μl of Streptavidin PE at 25 μg/ml and incubated at RT for 20 minutes. The plates were washed again and 100 μl of sheath fluid was added and the plate was placed on the shaker for 1 minute. Plates were read using a Luminex® 100 system; data were plotted as a function of binding protein concentration. IC₅₀ values were determined by fitting the data to the equation for sigmoidal dose response using PRIZM software (GraphPAD PRIZM).

Experiment [2] has as its target T1, human IL13 R130Q. Description: IL13Ra2 binding inhibition; assay not re-described (Luminex of Example 2). The procedure: as §1
For experiment [3], the target named is T2, human IL4 (human, UniProt P05112 25-153, biotinylated in the SPR and competition assays (sites not given)).
T2 sequence: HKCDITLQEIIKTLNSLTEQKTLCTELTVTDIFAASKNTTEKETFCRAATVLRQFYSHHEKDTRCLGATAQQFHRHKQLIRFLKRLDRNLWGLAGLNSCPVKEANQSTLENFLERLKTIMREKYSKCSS
As to the kind of experiment: cell-based or functional assay.

In experiment [4] the target is T2, human IL4. Description: Affinity to IL4; method not re-described.
The target in experiment [5] is T2, human IL4. As to the kind of experiment: IL4R binding inhibition; repeats Table 17. The procedure:
AR protein inhibition of IL4 binding to IL4 RA was assessed using IL4 RA-Fc (R&D Systems), comprising the Gly24-His232 which represents the ECD (SEQ ID NO: 5) fused to a human IgGl-Fc and therefor a disulfide linked homodimer. The protein was conjugated to carboxylated Luminex microspheres according to the manufacturer's protocol. For neutralization experiments, 5000 IL4RA-Fc conjugated beads in 50 μl were added to each well of a 96-well filter plate (Millipore). Biotinylated human IL4 was mixed with an appropriate dilution of AR protein in Luminex Assay Buffer (PBS, 1% BSA, pH 7.4) to give a final concentration of 67 pM IL4. The plate was incubated for 1 hour at RT in the dark on a plate shaker, set to shake vigorously to avoid bead aggregation. The plate was washed twice with 150 μl of wash buffer (PBS, 0.1% BSA, pH 7.4, 0.05% Tween-20) using a vacuum manifold followed by the addition of 50 μl of Streptavidin PE at 25 μg/ml and incubated at RT for 20 minutes. The plates were washed again and 150 μl of sheath fluid was added and the plate was placed on the shaker for 5 minute. Plates were read using a Luminex® 100 system; data were plotted as a function of AR protein concentration. IC₅₀ values were determined by fitting the data to the equation for sigmoidal dose response using PRISM software (GraphPAD PRISM) (Table 6).

Experiment [6] concerns the target T3, human IL13 (human, UniProt P35225 35-146, biotinylated in the SPR assays (sites not given)).
T3 construct: Peprotech; also called hIL13; recombinant human IL13
As to the kind of experiment: Affinity to IL13; method not re-described.

Experiment [7] deals with T3, human IL13. Description: cell-based or functional assay.
In experiment [8] the target is T2, human IL4. Description: IL4RA binding inhibition; assay not re-described (Luminex of Example 2).

Data on six molecules can be found in patent US20120277143A1 (Janssen / Centocor, published 2012).

T1 sequence (P35225 35-146 limits assumed, stated change not applied): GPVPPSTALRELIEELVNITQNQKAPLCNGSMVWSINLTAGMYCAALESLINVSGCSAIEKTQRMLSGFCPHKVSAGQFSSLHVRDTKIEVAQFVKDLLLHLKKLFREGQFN
T3 sequence (P35225 other isoform, or with tags, fused parts or gaps limits assumed): as the sequence (P35225 35-146 limits assumed, stated change not applied) above, with Q110R counted along it

B1: C01_6G9_V1_C06_28E5_V1 (designed binder)
chain: DLDKKLLEAARAGQDDEVRILMANGADVNARDSYGSTPLHLAAREGHLEIVEVLLKYGADVNAADFIGDTPLHLAAYRGHLEIVEVLLKYGADVNASDITGETPLHLAAQIGHLEIVEVLLKHGADVNAQDKFGKTAFDISIDNGNEDLAEILQKLGGGGSGGGGSGGGGSGGGGSRSDLGKKLLEAARAGQDDEVRILMANGADVNAADDSGITPLHLAAEDGHLEIVEVLLKAGADVNAQDNLGDTPLHLAAWTGHLEIVEVLLKAGADVNAYDISGITPLHLAAFYGHLEIVEVLLKHGADVNAQDKFGKTAFDISIDNGNEDLAEILQKLN
notes: bispecific IL13/IL4 ankyrin repeat protein with (GGGGS)4 linker; also called bispecific AR protein
B1: the concentration for half-maximal inhibition (IC50) with human IL13 R130Q [1] amounted to 0.032 nM; with human IL13 R130Q [2], 0.032 nM; in the experiment with human IL4 [5] it was 0.024 nM; with human IL4 [8], 0.024 nM. The “A549/TARC IL4 IC50” value in the experiment with human IL4 [3] stood at 0.033 nM. The “HEK stat6 hIL4 IC50” value with human IL4 [3] is 0.002 nM. Further, the “Ramos Assay IC50” value with human IL4 [3] is 0.0069 nM. In addition, the Kd with human IL4 [4] is 0.0031 nM; in the experiment with human IL13 [6] it was 0.0166 nM. The “A549/TARC IL13 IC50” value with human IL13 [7] amounted to 0.092 nM. For the same molecule, in the experiment with human IL13 [7], the “HEK Stat6 human IL13 IC50” value worked out at 0.019 nM.

B2: C01_6G9_V1_C06_53G6_V1 (designed binder)
chain: DLDKKLLEAARAGQDDEVRILMANGADVNARDSYGSTPLHLAAREGHLEIVEVLLKYGADVNAADFIGDTPLHLAAYRGHLEIVEVLLKYGADVNASDITGETPLHLAAQIGHLEIVEVLLKHGADVNAQDKFGKTAFDISIDNGNEDLAEILQKLNGGGGSGGGGSGGGGSGGGGSDLGKKLLEAARAGQDDEVRILMANGADVNATDDWGDTLLHLAATDGHLEIVEVLLKAGADVNANDAIGDTPLHLAALYGHLEIVEVLLKYGADVNATDLHGFTPLHLAAFWGHLEIVEVLLKHGADVNAQDKFGKTAFDISIDNGNEDLAEILQKLN
notes: as for B1
Regarding B2, the concentration for half-maximal inhibition (IC50) with human IL13 R130Q [1] amounted to 0.099 nM; with human IL13 R130Q [2], 0.099 nM; with human IL4 [5], 0.015 nM; in the experiment with human IL4 [8] it was 0.015 nM. Moreover, the “A549/TARC IL4 IC50” value with human IL4 [3] was 0.024 nM. Also, in the experiment with human IL4 [3], the “HEK stat6 hIL4 IC50” value is 0.0005 nM. For the same molecule, the “Ramos Assay IC50” value with human IL4 [3] came to 0.0048 nM. Besides, the values for the Kd with human IL4 [4] and with human IL13 [6] were 0.0031 nM and 0.0093 nM, respectively. The “A549/TARC IL13 IC50” value in the experiment with human IL13 [7] came to 0.075 nM. For the same molecule, the “HEK Stat6 human IL13 IC50” value with human IL13 [7] turned out to be 0.015 nM.

B3: C06_53G6_V1_C01_6G9_V1 (designed binder)
chain: DLGKKLLEAARAGQDDEVRILMANGADVNATDDWGDTLLHLAATDGHLEIVEVLLKAGADVNANDAIGDTPLHLAALYGHLEIVEVLLKYGADVNATDLHGFTPLHLAAFWGHLEIVEVLLKHGADVNAQDKFGKTAFDISIDNGNEDLAEILQKLNGGGGSGGGGSGGGGSGGGGSDLDKKLLEAARAGQDDEVRILMANGADVNARDSYGSTPLHLAAREGHLEIVEVLLKYGADVNAADFIGDTPLHLAAYRGHLEIVEVLLKYGADVNASDITGETPLHLAAQIGHLEIVEVLLKHGADVNAQDKFGKTAFDISIDNGNEDLAEILQKLN
notes: bispecific IL4/IL13 ankyrin repeat protein with (GGGGS)4 linker; also called bispecific AR protein
For B3, the half-inhibitory concentration (IC50) is 0.199 nM in the experiment with human IL13 R130Q [1], 0.199 nM with human IL13 R130Q [2], 0.034 nM with human IL4 [5] and 0.034 nM with human IL4 [8]. In the experiment with human IL4 [3], the “A549/TARC IL4 IC50” value was 0.05 nM. For the same molecule, in the experiment with human IL4 [3], the “HEK stat6 hIL4 IC50” value was found to be 0.0039 nM. Also, the “Ramos Assay IC50” value with human IL4 [3] came to 0.008 nM. Further, the Kd with human IL4 [4] stood at 0.0109 nM; in the experiment with human IL13 [6], 0.0384 nM. In the experiment with human IL13 [7], the “A549/TARC IL13 IC50” value is 0.131 nM. In addition, the “HEK Stat6 human IL13 IC50” value with human IL13 [7] stood at 0.027 nM.

B4: C06_44C12_V2_C01_6G9_V1 (designed binder)
chain: DLGKKLLEAASAGQDDEVHILMANGADVNALDDSGYTPLHLAAEDGHLEIVEVLLKHGADVNAADRLGDTPLHLAAFVGHLEIVEVLLKAGADVNAVDLAGVTPLHVAAFYGHLEIVEVLLKAGADVNAQDKFGKTAFDISIDNGNEDLAEILQKLNGGGGSGGGGSGGGGSGGGGSDLDKKLLEAARAGQDDEVRILMANGADVNARDSYGSTPLHLAAREGHLEIVEVLLKYGADVNAADFIGDTPLHLAAYRGHLEIVEVLLKYGADVNASDITGETPLHLAAQIGHLEIVEVLLKHGADVNAQDKFGKTAFDISIDNGNEDLAEILQKLN
notes: as for B3
Turning to B4, the 50% inhibitory concentration (IC50) with human IL13 R130Q [1] was 0.028 nM; with human IL13 R130Q [2], 0.028 nM; with human IL4 [5], 0.017 nM; in the experiment with human IL4 [8] it was 0.017 nM. For the same molecule, the “A549/TARC IL4 IC50” value with human IL4 [3] was determined as 0.016 nM. Further, the “HEK stat6 hIL4 IC50” value with human IL4 [3] came to 0.0007 nM. In addition, the “Ramos Assay IC50” value with human IL4 [3] turned out to be 0.0058 nM. Further, the results for the dissociation constant (Kd) with human IL4 [4] and with human IL13 [6] were 0.0017 nM and 0.0116 nM, respectively. In addition, in the experiment with human IL13 [7], the “A549/TARC IL13 IC50” value was 0.063 nM. For the same molecule, the “HEK Stat6 human IL13 IC50” value in the experiment with human IL13 [7] was determined as 0.014 nM.

B5: C06_28E5_V1_C01_6G9_V1 (designed binder)
chain: DLGKKLLEAARAGQDDEVRILMANGADVNAADDSGITPLHLAAEDGHLEIVEVLLKAGADVNAQDNLGDTPLHLAAWTGHLEIVEVLLKAGADVNAYDISGITPLHLAAFYGHLEIVEVLLKHGADVNAQDKFGKTAFDISIDNGNEDLAEILQKLNGGGGSGGGGSGGGGSGGGGSDLDKKLLEAARAGQDDEVRILMANGADVNARDSYGSTPLHLAAREGHLEIVEVLLKYGADVNAADFIGDTPLHLAAYRGHLEIVEVLLKYGADVNASDITGETPLHLAAQIGHLEIVEVLLKHGADVNAQDKFGKTAFDISIDNGNEDLAEILQKLN
notes: as for B3
For the molecule B5, the IC50 with human IL13 R130Q [1] was determined as 0.036 nM; with human IL13 R130Q [2] it was 0.036 nM; in the experiment with human IL4 [5], 0.025 nM; with human IL4 [8], 0.025 nM. In the experiment with human IL4 [3], the “A549/TARC IL4 IC50” value is 0.039 nM. The “HEK stat6 hIL4 IC50” value with human IL4 [3] was 0.0011 nM. Further, the “Ramos Assay IC50” value with human IL4 [3] came to 0.0054 nM. Further, the results for the Kd with human IL4 [4] and in the experiment with human IL13 [6] were 0.0217 nM and 0.0106 nM, respectively. The “A549/TARC IL13 IC50” value with human IL13 [7] turned out to be 0.084 nM. Moreover, in the experiment with human IL13 [7], the “HEK Stat6 human IL13 IC50” value is 0.019 nM.

B6: C01_6G9_V1_C06_44C12_V2 (designed binder)
chain: DLDKKLLEAARAGQDDEVRILMANGADVNARDSYGSTPLHLAAREGHLEIVEVLLKYGADVNAADFIGDTPLHLAAYRGHLEIVEVLLKYGADVNASDITGETPLHLAAQIGHLEIVEVLLKHGADVNAQDKFGKTAFDISIDNGNEDLAEILQKLNGGGGSGGGGSGGGGSGGGGSDLGKKLLEAASAGQDDEVHILMANGADVNALDDSGYTPLHLAAEDGHLEIVEVLLKHGADVNAADRLGDTPLHLAAFVGHLEIVEVLLKAGADVNAVDLAGVTPLHVAAFYGHLEIVEVLLKAGADVNAQDKFGKTAFDISIDNGNEDLAEILQKLN
notes: as for B1
On to B6, for which the IC50 with human IL13 R130Q [1] turned out to be 0.023 nM; with human IL13 R130Q [2], 0.023 nM; with human IL4 [5], 0.025 nM; with human IL4 [8], 0.025 nM. In addition, the “A549/TARC IL4 IC50” value in the experiment with human IL4 [3] worked out at 0.055 nM. The “HEK stat6 hIL4 IC50” value with human IL4 [3] turned out to be 0.0072 nM. Also, the “Ramos Assay IC50” value with human IL4 [3] was 0.0086 nM. The equilibrium dissociation constant (Kd) with human IL4 [4] was found to be 0.002 nM; with human IL13 [6] it was 0.0091 nM. Moreover, the “A549/TARC IL13 IC50” value with human IL13 [7] was 0.128 nM. Moreover, the “HEK Stat6 human IL13 IC50” value with human IL13 [7] came to 0.015 nM.
